This note sets out measurements from patent US20070190054A1 (published 2007).

The target in the assay is T1, C3b (purified; species not stated in Examples 12, 13, 19, 20) (Homo sapiens (Human), UniProt P01024 23-667; P01024 749-1663, The two chains are disulfide-linked. The internal thioester of the alpha' chain (Cys-Gln) is broken in C3b. Natural glycosylation is present. The protein carries an Alexa488 label in the …).
T1 construct: also called complement C3b; C3b-A488
The assay is described as follows: SPR (Biacore 2000), C3b amine-coupled to a CM5 chip, CRIg-Fc injected.

B1: murine CRIg-Fc fusion protein (Fc fusion)
chain: HPTLKTPESVTGTWKGDVKIQCIYDPLRGYRQVLVKWLVRHGSDSVTIFLRDSTGDHIQQAKYRGRLKVSHKVPGDVSLQINTLQMDDRNHYTCEVTWQTPDGNQVIRDKIIELRVRKYNPPRINTEAPTTLHSSLEATTIMSSTSDLTTNGTGKLEETIAGSGRNLPIFAIIFIISLCCI
notes: Produced in CHO cells; also called muCRIg-Fc; MuCRIg Fc; not shown: hinge, CH2 and CH3 domains of murine IgG1
On to B1, for which the Kd was 250 nM.
